This test deals with zebrafish TRPC4 (TRPC4DR) (Danio rerio (zebrafish)). Put plainly: cryo-EM structure; TRPC4DR in amphipols A8-35, unliganded (apo), closed state; buffer C (PBS pH 7.4, 1 mM TCEP); 0.25 mg/ml on the grid; C4 symmetry imposed; 3.6 Å.

Stoichiometry N data for one substance are collected here from PMC5951680.

The substance “zebrafish TRPC4 (TRPC4DR) (natural protein)” showed a stoichiometry N of 4.

As usually defined, the stoichiometry N is the number of molecules, sites or subunits per partner or assembly.
